The source of these data is patent publication US20220153875A1, “ANTIGEN-BINDING MOLECULE CONTAINING ANTIGEN-BINDING DOMAIN OF WHICH BINDING ACTIVITY TO ANTIGEN IS CHANGED DEPENDING ON MTA, AND LIBRARY FOR OBTAINING SAID ANTIGEN-BINDING DOMAIN” (Chugai Seiyaku Kabushiki Kaisha, priority 2019, published 2022).

The nature of test [1]: Surface plasmon resonance: humanized MTA0303 and humanized MTA0330, binding to MTA. Particulars: humanized antibodies; 25° C.; read-out: Affinity KD, MTA. The source says:
(§1) […] (GE Healthcare) was used to analyze binding to MTA and MTA analogs (adenosine, SAH) to verify whether humanized MTA0303 and humanized MTA0330 specifically bind to MTA.
(§2) The antibody of interest was captured on Sensor Chip Protein A (GE healthcare) with protein A pre-immobilized, or on an immobilized surface prepared by binding onto Streptavidin-immobilized Sensor chip SA (GE Healthcare) the Capture Select Biotin Anti-IgG-Fc (Hu) (Thermo fisher scientific), which is a biotinylated anti-human IgG CH1 molecule, and interacted with MTA (Sigma-Aldrich), or adenosine (Wako), or S-(5′-adenosyl)-L-homocysteine, (SAH) (Sigma-Aldrich). 20 mM ACES-NaOH, 150 mM NaCl, 0.05% Tween20, 0.05% DMSO was used as the running buffer. MTA or adenosine or SAH was allowed to interact at a flow rate of 30 μL/min for 120 seconds and then dissociated in the running buffer. The interaction was measured at 25° C. and the same buffer as the running buffer was used to dilute MTA, or adenosine, or SAH.
(§3) The dissociation constant KD (M) was calculated based on the binding rate constant ka (1/Ms) and the dissociation rate constant kd (1/s), which are kinetic parameters calculated from the sensorgrams obtained by the measurement. Alternatively, the dissociation constant KD (M) was calculated using steady state analysis. […] (GE Healthcare) was used to calculate each parameter.

The nature of test [2]: Surface plasmon resonance: humanized MTA0303 and humanized MTA0330, binding to adenosine. Particulars: humanized antibodies; 25° C.; read-out: Affinity KD, Adenosine.
Excerpt: as §1, §2, §3

A short description of test [3]: Surface plasmon resonance: humanized MTA0303 and humanized MTA0330, binding to SAH. Particulars: humanized antibodies; 25° C.; read-out: Affinity KD, SAH.
Excerpt: as §1, §2, §3

Test [4] is described as follows: Biacore T200: rabbit B cell cloning antibodies, binding to MTA. As to conditions: Biacore T200, 25° C.; read-out: Affinity KD, MTA. On the procedure:
(§4) The antibody of interest was captured on Sensor Chip Protein A (GE healthcare) with protein A pre-immobilized, or on an immobilized surface prepared by binding onto Streptavidin-immobilized Sensor chip SA (GE Healthcare) the Capture Select Biotin Anti-IgG-Fc (Hu) (Thermo fisher scientific), which is a biotinylated anti-human IgG CH1 molecule, and interacted with MTA (Sigma-Aldrich) or MTA analogs. As MTA analogs, adenosine (Wako) (measured concentration in tumor tissue: 182 nM) and S-(5′-adenosyl)-L-homocysteine, (SAH) (Sigma-Aldrich) (measured concentration in tumor tissue: 30 nM) were selected based on the structural similarity to MTA and the concentration in tumor tissue of tumor-bearing mice of an MTAP-deficient cell line. 20 mM ACES-NaOH, 150 mM NaCl, 0.05% Tween20, 0.05% DMSO was used as the running buffer. MTA or adenosine or SAH was allowed to interact at a flow rate of 30 μL/min for 120 seconds and then dissociated in the running buffer. The interaction was measured at 25° C. and the same buffer as the running buffer was used to dilute MTA and its analogs.
(§5) The dissociation constant […]) (M) was calculated based on the binding rate constant ka (1/Ms) and the dissociation rate constant kd (1/s), which are kinetic parameters calculated from the sensorgrams obtained by the measurement. Alternatively, the dissociation constant KD (M) was calculated using steady state analysis. […]

A short description of test [5]: Biacore T200: rabbit B cell cloning antibodies, binding to adenosine. Particulars: Biacore T200, 25° C.; read-out: Affinity KD, Adenosine. On the procedure: as §4, §5
Test [6] can be described thus: Biacore T200: rabbit B cell cloning antibodies, binding to SAH. As to conditions: Biacore T200, 25° C.; read-out: Affinity KD, SAH. The protocol:
as §4, §5

Test [7] concerns the target T1, hIL-6R (Homo sapiens, UniProt P08887).
T1 sequence (P08887 20-357): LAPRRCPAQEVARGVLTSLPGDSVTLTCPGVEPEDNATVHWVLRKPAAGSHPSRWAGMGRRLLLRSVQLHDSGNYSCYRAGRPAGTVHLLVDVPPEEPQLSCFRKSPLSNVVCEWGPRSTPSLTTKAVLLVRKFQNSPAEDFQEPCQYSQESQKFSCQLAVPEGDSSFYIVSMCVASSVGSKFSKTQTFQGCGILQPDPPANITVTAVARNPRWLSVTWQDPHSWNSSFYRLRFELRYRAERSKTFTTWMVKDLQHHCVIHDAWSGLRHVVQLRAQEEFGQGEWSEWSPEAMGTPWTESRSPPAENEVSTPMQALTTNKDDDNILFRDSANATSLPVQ
Description: Biacore T200: hIL-6R binding amount at different MTA concentrations. As to conditions: MTA 0.1, 1, 10, 100 μM, 25° C. On the procedure:
For the MTA-dependently binding anti-hIL-6R antibody cloned in Example (4-5) (6RS2T007H-F760mnN17/6RS2T007L-KT0), the change in the amount of antigen binding dependent on MTA concentration was assessed using Biacore T200 (GE Healthcare). The measurement was done at 25° C., using 20 mM ACES added with MTA at final concentrations of 0.1, 1, 10, and 100 μM, 150 mM NaCl, 0.05% (w/v) Tween20, pH 7.4 as the running buffer Series S Sensor Chip CM4 was used as the sensor chip, ProA/G was immobilized by amine coupling with the antibody mobilised on the top of that, after which hIL-6R was allowed to interact as an analyte to measure the change in binding amount between antigen-antibody. The running buffer was used to dilute the antigen.

A short description of test [8]: Biacore T200: binding of humanized SMB0002 to MTA. As to conditions: 37° C.; read-out: Affinity KD, MTA. The protocol:
(§6) CaptureSelect™ Biotin Anti-IgG-CH1 Conjugate (Thermo fisher scientific), which is a biotinylated anti-human IgG CH1 molecule, was bound to Sensor Chip SA (GE Healthcare) onto which streptavidin was immobilized in advance, then humanized SMB0002 was allowed to be captured, and MTA (Sigma-Aldrich) or adenosine (Wako) was allowed to interact with humanized SMB0002. 50 mM Tris-HCl, 150 mM NaCl (Takara, T903), 0.02% (w/v) Tween20, 5% DMSO was used as the running buffer. MTA or adenosine was allowed to interact with humanized SMB0002 for 42 seconds at a flow rate of 100 μL/min and then dissociated from the antibody in the running buffer. The interaction was measured at 37° C., and the same buffer as the running buffer was used to dilute MTA or adenosine.
(§7) The dissociation constant KD (M) was calculated based on the binding rate constant ka (1/Ms) and the dissociation rate constant kd (1/s), which are kinetic parameters calculated from the sensorgrams obtained by the measurement. Alternatively, the dissociation constant KD (M) was calculated using steady state analysis. Biacore T200 Evaluation Software (GE Healthcare) was used to calculate each parameter.

Test [9] is described as follows: Biacore T200: binding of humanized SMB0002 to adenosine. As to conditions: 37° C.; read-out: Affinity KD, Adenosine. The protocol:
as §6, §7

Test [10] concerns the target T1, hIL-6R. Description: Surface plasmon resonance (Biacore T200): C03H-BH076N17/C03L-KT0 binding to hIL-6R under MTA or adenosine. The protocol: Using Biacore T200 (GE Healthcare), the effects of MTA and adenosine on the antigen-antibody reaction between C03H-BH076N17/C03L-KT0 and hIL-6R were evaluated. TBS, 0.02% (w/v) Tween20, pH 7.4 was used as the running buffer. ProA/G (Pierce) was immobilized onto Sensor Chip CM5 (GE Healthcare) by amine coupling, and after the antibody was immobilized on it, various antigens were allowed to interact as analytes, to observe changes in the antigen-antibody binding amount. The running buffer and a buffer in which either MTA or adenosine was added to the running buffer were used for antigen dilution, which were prepared in a series of stepwise concentrations. Biacore T200 Evaluation Software (GE Healthcare) was used to calculate the parameters.

Where a chain is given by its changes, count along the chain named. Names may count otherwise.

B1: HumanizedMTA0303 (antibody, V domains shown)
VH: QVQLVESGGGLVKPGGSLRLSCAASGFTFSSAYWMCWVRQAPGKGLEWVACIFASAIYAGSGGSTYYASWAKGRLTISKDTSKNQVVLTMTNMDPVDTATYYCATGYGSSGGGFDELWGQGTLVTVSS
VL: EIVLTQSPATLSLSPGERATLSCQSSESVYANRLSWYQQKPGQPPKLLIYSASTLPSGIPARFSGSGSGTDFTLTISRLEPEDFAVYYCAGLYSGNIPAFGQGTKVEIK
For the molecule B1, the Kd in test [1] worked out at 0.0108 µM; in [2] it was 41.4 µM; in [3] it was 211 µM.

B2: MTA0303: anti-MTA antibody from rabbit B cell cloning; H-chain variable region SEQ ID NO: 46, L-chain SEQ ID NO: 47 (antibody, V domains shown)
VH: QSLEESGGDLVKPGASLTLTCTASGFSFSSAYWMCWVRQAPGKGLEWTACIFASAIYAGSGGSTYYASWAKGRFTISKTSSTTVTLQMTSLTAADTATYFCATGYGSSGGGFDELWGPGTLVTVSS
VL: AQVLTQTASSVSAAVGGTVTISCQSSESVYANRLSWYQQKPGQPPKLLIYSASTLPSGVPSRFKGSGSGTQFTLTISDLECDDVGTYYCAGLYSGNIPAFGGGTEVVVK
For B2, the Kd in test [4] came out at 0.00246 µM; in [5], 11.4 µM; in test [6], 119 µM.

B3: 6RS2T007H-F760mnN17/6RS2T007L-KT0: MTA-dependent anti-hIL-6R antibody; H-chain variable region SEQ ID NO: 57, L-chain variable region SEQ ID NO: 58 (antibody, V domains shown)
VH: QVQLVQSGAEVKKPGASVKVSCKVSNIVLMQHTYGWVRQPPGKGLEWIGIIGGDGHAWYPRWVKGRFTISKDNSKNQVVLTMTNMDPVDTATYYCARGGKDGFTNAWDPWGQGTLVTVSS
VL: DIQLTQSPSSLSASVGDRVTITCQSSQSVFNNNGLSWYQQKPGQPPKLLIYDASTLASGVPSRFSGSGSGTDFTLTINSLEAEDAATYYCHGSQATQIWWDNAFGGGTEVVVK
For the molecule B3, the “amount of antigen (hIL-6R) binding” value in the test with hIL-6R [7] is listed as “changes stepwise according to the MTA concentration”.

B4: Humanized SMB0002: adenosine-binding antibody, library template; heavy chain variable region SEQ ID NO: 31, light chain variable region SEQ ID NO: 32 (antibody, V domains shown)
VH: QVQLVQSGAEVKKPGASVKVSCKVSGIDLTNYAMGWVRQPPGKGLEWIGIIGADSSTWYPSWVKGRFTISKDTSKNQVVLTMTNMDPVDTATYYCARGRFVGYTNAFDPWGQGTLVTVSS
VL: B3 VL with F30W, G34Y, Q94Y, T96N, Q97S, I98G, W100Y
Turning to B4, the Kd in test [8] was 3.8 µM; in test [9] it was 0.064 µM.

B5: MTA0330: anti-MTA antibody from rabbit B cell cloning; H-chain variable region SEQ ID NO: 48, L-chain SEQ ID NO: 49 (antibody, V domains shown)
VH: QEQLVESGGDLVTPGASLTLTCKASGFSFSSSYWMCWVRQAPGKGLEWIACIYSGDGSTYYASWVNGRFTISKTSSTTVTLQMTSLTAADTATYFCARENIFGSGALNLWGPGTLVTVSS
VL: QAVVTQTPSPVSAAVGGTVTISCHSSKSVYSNNRLAWYQQKPGQPPKLLIYQASTLASGVASRFSGSGSGTQFTLTISGVQCDDAATYYCQGTYYSSGFYFAFGGGTEVVVK
For B5, the Kd is 0.0144 µM in test [4], 63.5 µM in test [5] and 187 µM in [6].

B6: C03H-BH076N17/C03L-KT0: antibody binding hIL-6R MTA-dependently; heavy chain variable region SEQ ID NO: 54, light chain variable region SEQ ID NO: 55 (antibody, V domains shown)
VH: QVQLVQSGAEVKKPGSSVKVSCKASGGTFSSYAISWVRQAPGQGLEWMGGIIPIFGTANYAQKFQGRVTITADESTSTAYMELSSLRSEDTAVYYCARFHVMSSFEIWGQGTLVTVSS
VL: DIQMTQSPSSLSASVGDRVTITCRASQSISSYLNWYQQKPGKAPKLLIYAASSLQSGVPSRFSGSGSGTDFTLTISSLQPEDFATYYCLQFNNDPLTFGGGTKVEIK
Turning to B6, the “amount of binding to hIL-6R” value is “showed stronger binding activity to hIL-6R as MTA concentration increased” in the test with hIL-6R [10] (different concentrations of MTA) and “no binding to hIL-6R was observed at any concentration” with hIL-6R [10] (different concentrations of adenosine).

B7: HumanizedMTA0330 (antibody, V domains shown)
VH: QVQLVESGGGLVQPGGSLRLSCSASGFTFSSSYWMCWVRQAPGKGLEWVGCIYSGDGSTYYASWVNGRLTISKDTSKSQVVLTMTNMDPVDTATYYCARENIFGSGALNLWGQGTLVTVSS
VL: DIQVTQSPSSLSASVGDRVTITCHSSKSVYSNNRLAWYQQKPGQPPKLLIYQASTLASGVPSRFSGSGSGTEFTLTISSLQPDDFATYYCQGTYYSSGFYFAFGQGTKVEIK
Take B7: the Kd in test [1] was 0.00888 µM; in [2], 44.8 µM; in test [3], 84.7 µM.
